Laboratory results from the DeepSol protein solubility set.

Assay: soluble on expression in E. coli; label from the status in PepcDB or PDB records
With “MGSDKIHHHHHHMFVSPMLLHSIKEPFNDENYITELKFDGIRLILSKFDNQIKLYTRHNNEVTSKFPELMDLDIPDGTVLDGEVIVAASGGAPDFEAVMERFMSKKSAHNIVYCVFDVIYKDGQSIAAKPLTERKTVLNSLELDHPNVFVIEGTQGNGLAYFNLAKEKNLEGIVIKKANSPYEINKRSHNWLKVINYDYTEVLITGYTKKDIKFLLSYPDGTSAGFMEFMPHAERTKFHSMKQVKSESDEYVFIEPILCNVKHRFKTKHGKLRIPSFESWRV” the “soluble on expression in E. coli” value was “not soluble”. In the case of “MENPDSAFLLFRNAPRLPLATMHTPLCGDSHQPDFAFRKPARDALLRPWNGRNHRCGLQDGREICQGQLPAHQKSYWSDCAALPRLFRAYGGAVVRGFLIVGNKAFTQPFSLNDLPGAGRMDVLCRCTSQALFISHGIRRDVEVYLLLLGPPSPPKSILIKGDEVRRMSPDERNVAGHIKKALAVECGKSWKKVHSGVYVSRKGLEELIEELSEKYSIIYLKEDGVDISNAQLPPNPLFVIGDHEGLTEEQEKVVERYAALKLSLSPLSLLAEQCVVIAHHHLDRLQF”, the “soluble on expression in E. coli” value is reported as “not soluble”. In the case of “MADVTGIALGMIETRGLVPAIEAADAMTKAAEVRLVGRQFVGGGYVTVLVRGETGAVNAAVRAGADACERVGDGLVAAHIIARVHSEVENILPKAPQA”, the “soluble on expression in E. coli” value is reported as “soluble”. In the case of “MANIDYMMDPGWKYLRQAQDEALKEQAARRFDNKTHAWVPDAAEGFVTAAVAVQEGDNLTFTMPDGTPKKLTRAEVQEINPAKFEKTEDMSNLTFLNEASVLHNLRQRYYSMMIYTYSGLFCVFINPYKMLPIYTDSVASMYVNKRRAEMPPHLFAVSDEAFRNMMSDKENQSMLITGESGAGKTENTKKVIAYFAMIGSGNKDQKSESSLENQVVQANPAIEAFGNGATTRNYNSSRYGKFIRIHFDRKGKLVGGDIEHYLLEKSRVIKQAPGERSYHIFYQIMTQKALRERYGLSDNIRDYKFVSQAEITVPGMNDTEEWQITDGAFNVMGFSEREKDDLYKLCSAIMHIGNSTFKQKPRDEQAEVDDMTSPTAACKLFGINTDQFLNALTRPRIKVGMEWVNKGQNVQQVDWAVGALSKAIYARMFNWLIKRVNKTLQANSDEMVYYIGVLDIAGFEIFDRNSFEQLWINFVNEKLQQFFNHHMFVLEQEEYQREGIEWTFIDFGLDLQSCIELIEKPLGIVSMLDEECIVPKASDMTYVDKLLTQHLGKHPNFQKAKPPKGKQAEAHFSIMHYAGTVRYNAEQWLDKNKDPLNDSAVAILKTSDKEGVLYQLWEEYQTDVDREESEKRGKAQAKKKGKSASFLTVSTMYRESLTSLMTMLHTTHPHFIRCIIPNEKKTSGLIDAPLVLNQLTCNGVLEGIRICRKGFPNRMMFADFRFRYAILAADEASDKDAAKASKAMLRKLSKNNQLNVDTFKVGTTKVFFRAGMLARLEELRDEALSAVILKFQCSLRHYLAQLEYKRRLDREDAYPIIQENIRAWIKLRSWPWYRLFSRLKPMLKGMKSNAEIEALEKKCKELEENHKREEEARKKYADELRAKIDQYEETKAAHERDRMLLDKRNKEIEELNRNLKAESESNYENAKKASELERLREKEKKEWDEKERRMQMEAENEANQHKTQTEKLKDQISTLQTDFEKVSAQRKAQEQMNAELVDEVASFKQKAERAEEQKKKLVEDLDSLDDKLAAEKRANNEHVKHNKKLEGQLKATQTQLTLALKEKHEFDVDCKRRESEIGELKLKAQGDANLISKLQAMLRKCISRIEELEEDLLEERKLRMKAERQFNELRSEYEVLQEQMAEASGQLTAEAHINKVRAEEVSNLRRDLQKRNLNHEAYISDLCNMQYATVNNLRNLSQQSATLESEALRILDHRRALSKQPLPRVYVEDPDSDSD”, the “soluble on expression in E. coli” value is reported as “not soluble”. With “GPGSMMDCDHLLRLGMTAKKILENGKGILAADETPKTLGRRFEKLGITNTEENRRKFREILFSTKGIERYIGGVILNQETFEQTSGSGVPLTELLKKKGIEIGIKLDKGLIDYKEKEKISVGLEDLDLRCKSSAFKDATFAKWRSLFYFYDGIPSEDCINENCSILAKYAIICQKNGLVPIVEPEVFLEGDYSMKRSYEVTRQILSTLMKYLNYELVYIPGVLIKASYVTSGQLSNEKYTPKKVATFTLRALLSTIPCGIPGIVFLSGGHGSEDAIGFLNAINMERGCRTWSLSFSFARALTDGVLETWRGDDSNIEEAQKILLETSFKACRGAEGKLWDQE” the “soluble on expression in E. coli” value was “soluble”. In the case of “MGSDKIHHHHHHMHFAPVEQATRFLADNPDIELFELFILDANGVPRGKLLHREELLAVYQTGRPLPSTILGLTLNGDDVENSGLVWDVGDIDCRAYPLDGSLVRLPWRRVPTAAVQVSMHPSEGLPASIADPRHVLLRTIEALKADGYHPVMACELEFYLLDQQRDAQGRPQPALDNDGGRPRSTQVYGLRELEQIEPFLADLYAACKAQGIPARTAISEYAPGQVEITLEHGDALQAMDQAVRYKRLVKGVAHAHGMQACFMAKPFAQLAGTGMHMHLSLADSAGNNLFASEDKAGTPLLRQAVAGMLRHLRDSLLLFCPNANSFRRFQANSYAPLAPTWGVDNRTVSLRVPGGPANSRHVEHRICGADANPYLAAAAILAASHWGIREQLDPGAPVEGNGYAQATEHLPTDWLTALDALQHSDWAREALGEDFLGVYLKVKRAEYRQFMAEVSEQDWRWYLHQA”, the “soluble on expression in E. coli” value is reported as “not soluble”. For “NAAQALVNVQTSVIPKTAFAARDFVDYSFPQEQKDKEKRKQQWVKNSHTKNSDVQPFAEFAILEIPLFSKSKVDRKIFNHFIQPAIRTYKQLGDSLNIFANPTLDQLKQNRYYVLGYPFLKNKVSSLFLNQTGKKKGIFRRKYTNIPWKTSYYLN”, the “soluble on expression in E. coli” value was “not soluble”. With “MSLRTTDIRVRDLYFEYEDFRYRTPIKFGGVALGRVTLLNVRMTVESAAGKAATGFGSMPLGNVWAYPSRLLTYDQTLGAMRFLASRIADGYRLCGLSGHPIDITHQLEPELLLAGNDFTAIHRPSDPVPKLAVLVVASAFDAALHDAYGKLHGLNCFRTYTREFLPDDLGHYLGAEFNGLHLDDFITHEPKPSMPLYHLVGALDPITPEDVTQPVGDGLPEHLAEWITRDGLTHLKIKLNGDDLGWDVERCVRINAVAEDAQRARGVTTWWYSLDFNERCQNVGYLIEFLQKLRERTPAGYDRVQYVEQPTARDLNAHPENKMHAAAKLKPVVIDESLLDLESLKLSMEMGYTGVAFKACKGQTQTLLLAAAAQKYGLFRCVQDLTCVGASLIHSAGLAAHIPGVAAIESNGRQYCPTANVAWDAKFPGVFTITGGSMNTALLNGVGLGAVSEGHHHHHH” the “soluble on expression in E. coli” value was “soluble”. In the case of “MGIHKPKFYAVRAGRDKGVFSSWEECRKAIYGFSGAVYRSFPTLEEAQAWFKGETLSDPLKAEDDSLRDDRTEYDVYTDGSYVNGQYAWAYAFVKDGKVHYEDADVGKNPAAATMRNVAGEIAAALYAVKKASQLGVKIRILHDYAGIAFWATGEWKAKNEFTQAYAKLMNQYRGIYSFEKVKAHSGNEFNDYVDMKAKSALGIRDLEHHHHHH”, the “soluble on expression in E. coli” value is reported as “not soluble”. In the case of “MSLDDLAQLANEVKASFVRLVNEDANSHMIGTAMSTIGRAFTQRIIELVEAELGAAPLPYCFVAFGSMGRDEQLIVTDQDNALILDDRYDVQQHGAYFAQFAELVCRGLDRCGYPLCDGEIMASNPKWRMTRKEWETCFADWIDNPNPQALLNASIFFDLDGVYGRTKWAEQLSGFIVRRARRNQRFLACLARNALNRTPPLGFFKNFVMEKDGRHNNSINLKRRGTAPLADLIRVHALAAGSRAKNSFERLDDVIEAGLLPQGKGKDLRDALEFIAMVRIRHQAIDVEQEGHHHHHH”, the “soluble on expression in E. coli” value is reported as “not soluble”. For “MNLMLCCTPLQVLIARKIIELHPNEQFFGVMFGGVWDKKRTLYASKLAEVCSDSMNIDTGKDLKGFDFLKLMRQLKNKITHKGFDKVFLANLNSLWLQTYLSHVSFKELYTFDDGSDNIFPHPNLLREPGTFKYKLIKAFIGDKYSVNKLFKKIKKHYTVYPNYKNIVSNIEPISLWDNQIDCEIDGEVSFFIGQPLLNTKEENISLIKKLKDQIPFDYYFPHPAEDYRVDGVNYVESELIFEDYVFKHLSNKIIIYTFFSSVAFNLLSHPNVEIRFIRTSIPRWQFCYDSFPDLGLTIYKEILEHHHHHH”, the “soluble on expression in E. coli” value was “soluble”. For “MGSDKIHHHHHHMIYIGLPQWSHPKWVRLGITSLEEYARHFNCVEGNTTLYALPKPEVVLRWREQTTDDFRFCFKFPATISHQAALRHCDDLVTEFLTRMSPLAPRIGQYWLQLPATFGPRELPALWHFLDSLPGEFNYGVEVRHPQFFAKGEEEQTLNRGLHQRGVNRVILDSRPVHAARPHSEAIRDAQRKKPKVPVHAVLTATNPLIRFIGSDDMTQNRELFQVWLQKLAQWHQTTTPYLFLHTPDIAQAPELVHTLWEDLRKTLPEIGAVPAIPQQSSLF”, the “soluble on expression in E. coli” value was “not soluble”. For “GAMVVSPAGADRRIPTWASRVVSGLARDRPVVVTKEDLTQRLTEAGCGRDPDSAIRELRRIGWLVQLPVKGTWAFIPPGEAAISDPYLPLRSWLARDQNAGFMLAGASAAWHLGYLDRQPDGRIPIWLPPAKRLPDGLASYVSVVRIPWNAADTALLAPRPALLVRRRLDLVAWATGLPALGPEALLVQIATRPASFGPWADLVPHLDDLVADCSDERLERLLSGRPTSAWQRASYLLDSGGEPARGQALLAKRHTEVMPVTRFTTAHSRDRGESVWAPEYQLVDELVVPLLRVIGKA”, the “soluble on expression in E. coli” value was “soluble”. With “SRLEGWLSLPVRNNTKKFGWVKKYVIVSSKKILFYDSEQDKEQSNPYMVLDIDKLFHVRPVTQTDVYRADAKEIPRIFQILYANEGISSAKNLLLLANSTEEQQKWVSRLVKKIPKK” the “soluble on expression in E. coli” value was “soluble”. For “MGSDKIHHHHHHMKKYVLSLALLGSLLGASELKYQEFDGFKSPESIFVDKNYVYVSNVGEKLEPLAKDNDGFISKLDKNGKVLEYKFLTHLNAPKGMMEIGKTLYVVDIDVLRGFDLKTKKEIFNLPIKGAIFLNDIEKLDDNTLLVSDTGTGLILKVDLKTKQYDELLKLDLAKFGGPNGLYLDRKKHKLFIAGYHPDGVSGGVVMAYDLNTKELSIIKNEKESYDGIVPYKDGLLVSSWGNNLNGYIYNLDNVKSVKLELPLMKGPADIFIEGNILWIPKMVEGKIFKVELNK”, the “soluble on expression in E. coli” value was “not soluble”. In the case of “MESIVDKQAVKHFLLQLQDKICQQLEATDGQAQFIEDAWQREPGEKLGGGGRTRVMREGAVFEQGGVNFSHVFGEQMPASATAHRPELAGRRFEAMGVSLVMHPKNPYVPTSHANVRFFIAEKEGEAPIWWFGGGFDLTPFYPFVEDGQHWHQTAKNICAPFGSEIYNEHKAWCDRYFYLPHRNETRGIGGLFFDDLNEWSFEQCFAYMQAVGEGYTQAYVPIVEKRKNTPFTERERQFQLYRRGRYVEFNLVLDRGTLFGLQTGGRTESILMSMPPLARWEYAYQPQAGTPEAKLSEFLVPREW”, the “soluble on expression in E. coli” value is reported as “not soluble”. For “SQDPYFKIANWTNEHDDFKKAEMRMDEKHRKKVDKVMKEWGDLETRYNEQKAKDPKGAEKFKSQMNARFQKTVSSLEEEHKRMRKEIEAVHEERVQAMLNEKKRDATHDYRQALATHVNKPNKHSVLQSLKAYIRAEEKDRMHTLNRYRHLLKADSKEAAAYKPTVIHRLRYIDLRINGTLAMLRDFPDLEKYVRPIAVTYWKDYRDEVSPDISVEDSELTPIIHDDEFSKNAKLDVKA”, the “soluble on expression in E. coli” value was “soluble”. For “MGSDKIHHHHHHMGNSVLKMMIDAGPIMRTVSLPRGRHSLHTMPTSTGYEVRSDATYDWDGRKRGQTPFTVLQHTISGAGNLRYENSTYRVTPGQTLLVLVPHNHRYWLEPGGRWEFFWISMNGEEALRIHNAILTAMGPIFNLNQQTVEHLADCSQRLIAGGAETPGRASAIAYEAAMALYDDVFGSHPTLSAEYRTMQHVIDHISANLDQSLSVEQLAAVSGLSRAHFSRVFAASEGMPPAEFVLHKRLKRAVKLLTKGSHLSVKEISTMCGFEEPNYFSKVFRRHFGASPTEFRTTGMYSSILQGGVEAETKPARFHRPDVNE”, the “soluble on expression in E. coli” value was “not soluble”.
